# Test results: patent US20260248972A1, “DUAL RECEPTOR TARGETING RADIOLIGANDS AND USES THEREOF RELATED APPLICATIONS” (priority 2022, published 2026)
# Assay: in vivo
# Conditions: BALB/c nude, mouse, in vivo, iv, total radioactivity
# Outline: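 Compounds labelled with ^177Lu in 0.5 M NaOAc pH 4.5 at 95° C for 15 min, then used directly or diluted in PBS with 3 mg/mL ascorbate. BALB/c nude mice bore subcutaneous AR42J flank xenografts (0.05-0.50 g). Organs excised at 4, 24 and 72 h post-injection and γ-counted for % ID and % ID/g.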
SMILES,tissue uptake at 4 h (% ID/g Adrenal gland) [%ID/g],tissue uptake at 24 h (% ID/g Adrenal gland) [%ID/g],tissue uptake at 72 h (% ID/g Adrenal gland) [%ID/g],tissue uptake at 4 h (% ID/g Blood) [%ID/g],tissue uptake at 24 h (% ID/g Blood) [%ID/g],tissue uptake at 72 h (% ID/g Blood) [%ID/g],tissue uptake at 4 h (% ID/g Femur) [%ID/g],tissue uptake at 24 h (% ID/g Femur) [%ID/g],tissue uptake at 72 h (% ID/g Femur) [%ID/g],tissue uptake at 4 h (% ID/g Heart) [%ID/g],tissue uptake at 24 h (% ID/g Heart) [%ID/g],tissue uptake at 72 h (% ID/g Heart) [%ID/g],tissue uptake at 4 h (% ID/g Intestine) [%ID/g],tissue uptake at 24 h (% ID/g Intestine) [%ID/g],tissue uptake at 72 h (% ID/g Intestine) [%ID/g],tissue uptake at 4 h (% ID/g Kidney) [%ID/g],tissue uptake at 24 h (% ID/g Kidney) [%ID/g],tissue uptake at 72 h (% ID/g Kidney) [%ID/g],tissue uptake at 4 h (% ID/g Liver) [%ID/g],tissue uptake at 24 h (% ID/g Liver) [%ID/g],further results
"C[C@@H](O)[C@H](NC(=O)[C@@H]1CSSC[C@H](NC(=O)[C@@H](Cc2ccccc2)NC(=O)COCCOCCNC(=O)[C@H](CCCCNC(=O)CCC(C(=O)O)N2CCN(CC(=O)O)CCN(CC(=O)O)CCN(CC(=O)O)CC2)NC(=O)COCCOCCNC(=O)CC[C@H](NC(=O)CC[C@H](NC(=O)c2cccc(NC(=O)N[C@@H]3CN(C4CCCCC4)c4ccccc4N(CC(=O)C(C)(C)C)C3=O)c2)C(=O)O)C(=O)O)C(=O)N[C@@H](Cc2ccc(O)cc2)C(=O)N[C@H](Cc2c[nH]c3ccccc23)C(=O)N[C@@H](CCCCN)C(=O)N[C@@H]([C@@H](C)O)C(=O)N1)C(=O)O (stereo partly drawn) [^177Lu-1-13, metal not drawn]",3.6,0.81,0.73,0.64,0.09,0.03,0.21,0.27,0.14,0.54,0.19,0.11,0.89,0.37,0.22,58.6,46.7,22.5,0.79,1.21,tissue uptake at 72 h (% ID/g Liver): 0.52 %ID/g; tissue uptake at 4 h (% ID/g Lung): 1.57 %ID/g; tissue uptake at 24 h (% ID/g Lung): 0.43 %ID/g; tissue uptake at 72 h (% ID/g Lung): 0.38 %ID/g; tissue uptake at 4 h (% ID/g Muscle): 0.08 %ID/g; tissue uptake at 24 h (% ID/g Muscle): 0.08 %ID/g; tissue uptake at 72 h (% ID/g Muscle): 0.05 %ID/g; tissue uptake at 4 h (% ID/g Pancreas): 1.59 %ID/g; tissue uptake at 24 h (% ID/g Pancreas): 1.21 %ID/g; tissue uptake at 72 h (% ID/g Pancreas): 0.91 %ID/g; tissue uptake at 4 h (% ID/g Spleen): 0.43 %ID/g; tissue uptake at 24 h (% ID/g Spleen): 0.47 %ID/g; tissue uptake at 72 h (% ID/g Spleen): 0.64 %ID/g; tissue uptake at 4 h (% ID/g Stomach): 2.23 %ID/g; tissue uptake at 24 h (% ID/g Stomach): 2.19 %ID/g; tissue uptake at 72 h (% ID/g Stomach): 1.95 %ID/g; tissue uptake at 4 h (% ID/g Tumor): 14.6 %ID/g; tissue uptake at 24 h (% ID/g Tumor): 14.8 %ID/g; tissue uptake at 72 h (% ID/g Tumor): 6.83 %ID/g
"C[C@@H](O)[C@H](NC(=O)[C@@H]1CSSC[C@H](NC(=O)[C@@H](Cc2ccccc2)NC(=O)COCCOCCNC(=O)[C@H](CCCCNC(=O)CC[C@H](NC(=O)CNC(=O)c2cccc(NC(=O)N[C@@H]3CN(C4CCCCC4)c4ccccc4N(CC(=O)C(C)(C)C)C3=O)c2)C(=O)O)NC(=O)COCCOCCNC(=O)CC[C@H](NC(=O)CC[C@H](NC(=O)CN2CCN(CC(=O)O)CCN(CC(=O)O)CCN(CC(=O)O)CC2)C(=O)O)C(=O)O)C(=O)N[C@@H](Cc2ccc(O)cc2)C(=O)N[C@H](Cc2c[nH]c3ccccc23)C(=O)N[C@@H](CCCCN)C(=O)N[C@@H]([C@@H](C)O)C(=O)N1)C(=O)O [^177Lu-1-14, metal not drawn]",3.55,2.72,1.44,1.32,0.09,0.02,0.49,0.4,0.31,0.8,0.17,0.19,0.6,1.25,0.37,48.2,68.6,24.3,3.31,2.24,tissue uptake at 72 h (% ID/g Liver): 1.28 %ID/g; tissue uptake at 4 h (% ID/g Lung): 1.32 %ID/g; tissue uptake at 24 h (% ID/g Lung): 0.72 %ID/g; tissue uptake at 72 h (% ID/g Lung): 0.95 %ID/g; tissue uptake at 4 h (% ID/g Muscle): 0.17 %ID/g; tissue uptake at 24 h (% ID/g Muscle): 0.17 %ID/g; tissue uptake at 72 h (% ID/g Muscle): 0.11 %ID/g; tissue uptake at 4 h (% ID/g Pancreas): 2.11 %ID/g; tissue uptake at 24 h (% ID/g Pancreas): 3.37 %ID/g; tissue uptake at 72 h (% ID/g Pancreas): 3.14 %ID/g; tissue uptake at 4 h (% ID/g Spleen): 0.64 %ID/g; tissue uptake at 24 h (% ID/g Spleen): 0.56 %ID/g; tissue uptake at 72 h (% ID/g Spleen): 2.17 %ID/g; tissue uptake at 4 h (% ID/g Stomach): 3.68 %ID/g; tissue uptake at 24 h (% ID/g Stomach): 2.25 %ID/g; tissue uptake at 72 h (% ID/g Stomach): 2.99 %ID/g; tissue uptake at 4 h (% ID/g Tumor): 30.9 %ID/g; tissue uptake at 24 h (% ID/g Tumor): 14.9 %ID/g; tissue uptake at 72 h (% ID/g Tumor): 18 %ID/g
